Experimental findings from publication PMC5818551 are described below.

“And” between values parts separate entries of the source, which are not always exact repeats. Identical values can stand only once.

The target of test [1] is full-length gephyrin rC4. In words: ITC.
Test [2] addresses gephyrin E-domain (GephE). As to the kind of experiment: not stated; data not shown; physiologic salt concentrations and pH 7.4-8.0.
Test [3] concerns the target full-length gephyrin rC4.
The target in test [4] is full-length gephyrin rC4. In words: cross-linking; EDC cross-linking of purified full-length gephyrin and βL-wt, 6% SDS-PAGE with Coomassie staining, trimer band extracted, tryptic digestion and LC-MS/MS peptide mass fingerprinting.
Test [5] has as its target gephyrin E-domain (GephE). As to the kind of experiment: ITC.

On to “GlyR β-loop βL-LO, residues 378-413 (from UniProt P20781 400-435) (peptide)”, for which, in the test with full-length gephyrin rC4 [1], the dH is -11.8 kcal/mol.

Turning to “gephyrin E-domain (GephE) (domain or fragment)”, the stoichiometry N in test [2] came to 2.

Consider “GlyRβ-D407P/F408G: mEos4b-tagged full-length human GlyRβ with D407P and F408G (from UniProt P48167-1 23-497) (receptor)”, for which, in the test with full-length gephyrin rC4 [3], the Deff of extrasynaptic trajectories above the threshold of 0.02 µm^2/s (sptPALM, rat spinal cord neurons), Q1/Q2/Q3; value: the median Q2 worked out at 0.09 µm^2 · s^−1; the Deff of synaptic trajectories above the threshold of 0.02 µm^2/s (sptPALM, rat spinal cord neurons), Q1/Q2/Q3; value: the median Q2 turned out to be 0.04 µm^2 · s^−1; the explored area of extrasynaptic trajectories above the threshold of 0.02 µm^2/s (sptPALM, rat spinal cord neurons), Q1/Q2/Q3; value: the median Q2 is 0.00152 µm^2; the explored area of synaptic trajectories above the threshold of 0.02 µm^2/s (sptPALM, rat spinal cord neurons), Q1/Q2/Q3; value: the median Q2 was determined as 0.00086 µm^2.

“full-length gephyrin rC4 (natural protein)”: in the test with full-length gephyrin rC4 [4], the stoichiometry N was 2 and 3.

Take “GlyR β-loop wild type, residues 378-426 of the GlyRβ subunit (from UniProt P20781 400-448) (peptide)”: in test [5], the dH was -16.1 kcal/mol.

For the substance “GlyR β-loop βL-HI, residues 394-426 (from UniProt P20781 416-448) (peptide)”, the dH with full-length gephyrin rC4 [1] is -21.5 kcal/mol.

In the test with full-length gephyrin rC4 [3], “GlyRβ-geph^-: mEos4b-tagged full-length human GlyRβ with F398A/I400A (from UniProt P48167-1 23-497) (receptor)” came in with a Deff of extrasynaptic trajectories above the threshold of 0.02 µm^2/s (sptPALM, rat spinal cord neurons), Q1/Q2/Q3; value: the median Q2 of 0.11 µm^2 · s^−1; a Deff of synaptic trajectories above the threshold of 0.02 µm^2/s (sptPALM, rat spinal cord neurons), Q1/Q2/Q3; value: the median Q2 of 0.09 µm^2 · s^−1; an explored area of extrasynaptic trajectories above the threshold of 0.02 µm^2/s (sptPALM, rat spinal cord neurons), Q1/Q2/Q3; value: the median Q2 of 0.00183 µm^2; an explored area of synaptic trajectories above the threshold of 0.02 µm^2/s (sptPALM, rat spinal cord neurons), Q1/Q2/Q3; value: the median Q2 of 0.00151 µm^2.

In the test with full-length gephyrin rC4 [3], “GlyRβ-HI: mEos4b-tagged full-length human GlyRβ with deletion ΔV378-L393 (from UniProt P48167-1 23-497) (receptor)” came in with a Deff of extrasynaptic trajectories above the threshold of 0.02 µm^2/s (sptPALM, rat spinal cord neurons), Q1/Q2/Q3; value: the median Q2 of 0.05 µm^2 · s^−1; a Deff of synaptic trajectories above the threshold of 0.02 µm^2/s (sptPALM, rat spinal cord neurons), Q1/Q2/Q3; value: the median Q2 of 0.04 µm^2 · s^−1; an explored area of extrasynaptic trajectories above the threshold of 0.02 µm^2/s (sptPALM, rat spinal cord neurons), Q1/Q2/Q3; value: the median Q2 of 0.00096 µm^2; an explored area of synaptic trajectories above the threshold of 0.02 µm^2/s (sptPALM, rat spinal cord neurons), Q1/Q2/Q3; value: the median Q2 of 0.00077 µm^2.

As for “core βL peptide, residues 394-413 (from UniProt P20781 416-435)”, the dH with full-length gephyrin rC4 [1] is -11 kcal/mol.

In the test with full-length gephyrin rC4 [3], “mEos4b-tagged full-length human GlyRβ subunit, wild type (from UniProt P48167-1 23-497) (receptor)” came in with a Deff of extrasynaptic trajectories above the threshold of 0.02 µm^2/s (sptPALM, rat spinal cord neurons), Q1/Q2/Q3; value: the median Q2 of 0.05 µm^2 · s^−1; a Deff of synaptic trajectories above the threshold of 0.02 µm^2/s (sptPALM, rat spinal cord neurons), Q1/Q2/Q3; value: the median Q2 of 0.04 µm^2 · s^−1; an explored area of extrasynaptic trajectories above the threshold of 0.02 µm^2/s (sptPALM, rat spinal cord neurons), Q1/Q2/Q3; value: the median Q2 of 0.00091 µm^2; an explored area of synaptic trajectories above the threshold of 0.02 µm^2/s (sptPALM, rat spinal cord neurons), Q1/Q2/Q3; value: the median Q2 of 0.00073 µm^2.
